# Assay: yeast display, Sf9 membrane polyspecificity reagent, FACS + sequencing; frameworks hold sequencing errors
# Summary of the method: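 After 36–48 hours of galactose induction, yeast (Saccharomyces cerevisiae BJ5465) displaying a synthetic nanobody library were stained at 4 °C for 1 hour with 10% biotinylated, detergent-solubilized Sf9 membrane reagent. Streptavidin microbeads enriched the stained cells before FACS sorting into low and high (top ~1%) gates on anti-HA and streptavidin fluorescence. Each clone's polyreactivity label reflects its gate of origin.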
row,Sequence,polyreactivity (PSR sort gate)
1,QVQLVESGGGLVQAGGSLRLSCAASGSTLGRYAMGWYIQAPGKERELVAAISRGGGSTYYADSVKGRFTISRDNAKNTVYLQMNSLKPEDTAVYYCAARQYIGSPPHRRRFDYWGQGTQVTVSS,high polyreactivity
2,QVQLVESGGGLVQAGGSLRLSCAASGSTLGRYAMGWYRQAPGKERELVAAISRGGGSTYYADSVKGRFTISRDNAKNTVYLQMNSLKPEYTAVYYCAVGIVHRDSRYYYWGQGTQVTVSS,high polyreactivity
3,QVQLVESGGGLVQAGGSLRLSCAASGSTLISYTMGWYRQAPGKERELVAAITSAVTTYYADSVKGRFTISRDNAKNTVYLQMNSLIPEDTAVYDCNAVPDTRSGELDYWGQGTQVTVSS,low polyreactivity
4,QVQLVESGGGLVQAGGSLRLSCAASGSTLKSYVMGWYRQAPGKERELVARISRSGGSTYYADSVKGRFTISRDNAKNTVYLQMNSLKPEDTAVYYCAAATPRLSYDYWGQGTQVTVSS,high polyreactivity
5,QVQLVESGGGLVQAGGSLRLSCAASGSTLLSNAMGWYTQAPGKERELVAAINYSGGRTYYADSVKGRFTISRDNAKNTVYLQMNSLKPEDTAVYYCNALSSGHGSSSRYDYWGQGTQVTVSS,low polyreactivity
6,QVQLVESGGGLVQAGGSLRLSCAASGSTLPANSMGWYRQAPGKERELVAAITITTDGSTYYADSVKGRFTISRDNAKNTVYLQMNSLKPEDTAVYYCAVARYRYHIRKMGYWGQGTQVTVSS,low polyreactivity
7,QVQLVESGGGLVQAGGSLRLSCAASGSTLPSNTMGWYRQAPGKERELVAAISRNGGSTYYADSVKGRFTISRDNAKNTVYLQMNSLKPEDTAVYYCNRVYRERYPYVLYGYWGQGTQVTVSS,high polyreactivity
8,QVQLVESGGGLVQAGGSLRLSCAASGSTLPVNAMGWYRQAPGKERELVAAINRDGSTNYADSVKRPFTFSRDNAKNTVYLQMNSLKQEDTAVYYCAADGFGYPGKRYDYWGQGTQVTVSS,low polyreactivity
9,QVQLVESGGGLVQAGGSLRLSCAASGSTLQRYTMGLYRPAPGKERELDAAITQSGGSTFYADSVKGRFTISRDNAKNTVYLQMNSLKPEDTAVYYCAAKLTTGYYYGVPRDYWGQGTQVTVSS,high polyreactivity
10,QVQLVESGGGLVQAGGSLRLSCAASGSTLQVYARGWYRQAPGKERELVAASSKSGGRTYYADSVKGRFTISRDNAKNTVYLQMNSLKPEDTAVYYCAADVGTAQSTYGYWGQGTQVTVSS,high polyreactivity
11,QVQLVESGGGLVQAGGSLRLSCAASGSTLRAYAMGWSRQAPGKERELVAAINVSSGGTYYADSVKGRFTISRDNAKNTVYLQMNSLKPEDTAVYYCAARARWAGLRYTRYYYWGQGTQVTVSS,high polyreactivity
12,QVQLVESGGGLVQAGGSLRLSCAASGSTLRAYTMGWYRQAPGKERELVATITRRGGTTYYADSVKGRFTISRDNAKNTVYLQMNSLKPEDTAVYYCAAKWYSTHRYDYWGQGTQVTVSS,high polyreactivity
13,QVQLVESGGGLVQAGGSLRLSCAASGSTLRRYAMGWYRQAPGKERDLVAAITSRGTDTYYADSVKGRFTISRDNAKNTVYLQMNSLKPEDTAVYYCAASWVAGGHYGYDYWGQGTQVTVSS,high polyreactivity
14,QVQLVESGGGLVQAGGSLRLSCAASGSTLRWNAMGWYRQAPGKERELVAAITYSGGSTYYADSVKGRFTISRDNAKNTVYLQMNSLKPEDTAVYYCAADSYRYRPGYGPVLYDYWGQGTQVTVSS,high polyreactivity
15,QVQLVESGGGLVQAGGSLRLSCAASGSTLSDNAMGWYRQAPGKERELVASISWSGGTYYADSVKGRFTISRDNAKNTVYLQMNSLKPEDTAVYYCAAYIYYNYSRQYWYDYWGQGTQVTVSS,low polyreactivity
16,QVQLVESGGGLVQAGGSLRLSCAASGSTLSFKAMGWYRQAPGKERELVAGITYSGGSTYYADSVKGRFTISRDNAKNTVYLQMNSLKPEDTAVYYCNKASGVYYGHLDYWGQGTQVTVSS,low polyreactivity
17,QVQLVESGGGLVQAGGSLRLSCAASGSTLSFNAMGWYRQAPGKERELVAGITYSGGSTYYADSVKGRFTISRDNAKNTVYLQMNILKPEDTAVYYCNKASGVYYGHLDYWGQGTQVTVSS,low polyreactivity
18,QVQLVESGGGLVQAGGSLRLSCAASGSTLSFNAMGWYRQAPGKERELVAGITYSGGSTYYADYVKGRFTISRDNAKNTVYLQMNSLKPEDTAVYYCNKASGVYYGHLDYWGQGTQVTVSS,low polyreactivity
19,QVQLVESGGGLVQAGGSLRLSCAASGSTLSKNAMGWYRQAPGKERELVAAMTRRGGSTSYADSVKGRFTMSRDYAKNTVYLQMNSLKPEDTAVYYCNAVSKYDYGYWGQGTQVTVSS,high polyreactivity
20,QVQLVESGGGLVQAGGSLRLSCAASGSTLSQNAMGWSRQAPGKEREFVADISGSGDSTYYADSVKGRITISRDNAKNTVYLQMNSLKPEDTAVYYCAAEELSHYEYWGKGTQVTVSS,low polyreactivity
21,QVQLVESGGGLVQAGGSLRLSCAASGSTLSSNAMGWYRQAPGKVWELVAAISYRGGSTYYADSVKGRFTISRDNAKNTVYLQMNSLKPEDTAVYYCAAYLGPYVRYYYWGQGTQVTVSS,high polyreactivity

row,Sequence,polyreactivity (PSR sort gate)
1,QVQLVESGGGLVQAGGSLRLSCAASGSTLSYNAMGWYRQAPGKERELVAAISWSDGGTYYADSVKGRFTISRDTAKNTVFLQMNSLKPEDTAVYYCAARRGVRYSKFGYYYWGQGTQVTVSS,high polyreactivity
2,QVQLVESGGGLVQAGGSLRLSCAASGSTLTPNAMGWYRQAPGKERELVAAISRSGGSTYYADSVKGRFTISRDNAKNTVYLQRNSLKPEDTAVYYCRGYYIGIRAYGYWGQGTQVTVSS,high polyreactivity
3,QVQLVESGGGLVQAGGSLRLSCAASGSTLTYNAMGWYRQAPGKERELVADITS,low polyreactivity
4,QVQLVESGGGLVQAGGSLRLSCAASGSTLTYYVMGWSRQAPGKERELVAAITDSGGGTYYADSVKGRFTISRDNAKNTVYLQMNSLKPEDTAVYYCNAYYPYGLASFYYWGQGTQVTVSS,low polyreactivity
5,QVQLVESGGGLVQAGGSLRLSCAASGSTLVANAMGWYRQAPGKERELVAAISSGGITYYADSVKGRFTISRDNAKNTVYLQMHSLKPEDTAVYYCAARIRGTWKYGYWGQGTQVTVSS,low polyreactivity
6,QVQLVESGGGLVQAGGSLRLSCAASGSTLVFSAMGWYRQAPGKERELVAAITRSGGSTYYADSVKGRFTITRDNAKNTVYLQMNSLKPEDTAVYYCAADERYIYERDSWGQGTQVSVSS,low polyreactivity
7,QVQLVESGGGLVQAGGSLRLSCAASGSTLVGYVMGWYRQAPGKERELVAAITTVGSTYYADSVKGRFTISRDNAKNTVYLQMNSLKPEDTAVYYCNAVRAYVDLRTGHFRGDYWGQGTQVTVSS,low polyreactivity
8,QVQLVESGGGLVQAGGSLRLSCAASGSTLVLNAMGWYRQAPGKERELVAAISRGGGSTSYADSVKGRFTISRDNAKNTVYLQMNSLKPEDTAVYYCNAYTYYHANHEQGFGYWGQGTQVTVSS,low polyreactivity
9,QVQLVESGGGLVQAGGSLRLSCAASGSTLVLNAMGWYRQAPGKERELVAAITISGDTTYYADSVKGRFTISRDNAKNTVYLQMNSLKPEDTAVYYCAVDSFLVYSAVRPYDYWGQGTQVTVSS,low polyreactivity
10,QVQLVESGGGLVQAGGSLRLSCAASGSTLVSNAMGWYIQAPGKEREFVAAINSSGSRTYYADSVKGRFTISRDNANNTVYLQMNSLKPEDTAVYYCAAGYWNDFDWGQVTQVTVSS,low polyreactivity
11,QVQLVESGGGLVQAGGSLRLSCAASGSTLVWNAMGWYRQAPGKERELVAGITTSGGSTSYADSVKGRFTISRDNAKNTVYLQMNSLKQEDTAVYYCAVDAAIYTNKLDYWGQGTQVTVSS,low polyreactivity
12,QVQLVESGGGLVQAGGSLRLSCAASGSTLWFNAMGWYRQAPGKERELVAAINWSGGSTYYADSVKGRFTISRDNAKNTVYLQMNSLKPEDTAVYYCAAVYQYVHYVWYDYWGQGTQVTVSS,low polyreactivity
13,QVQLVESGGGLVQAGGSLRLSCAASGSTLWGYVMGWYRQAPGKERELVAVISKSGGSTYYADSVKGRFTISRDNANNTVYLQMNSLKPEDTAVYYCATRWPYRSDWGQGTQVTVSS,high polyreactivity
14,QVQLVESGGGLVQAGGSLRLSCAASGSTLWRYAMGWYRQAPGKERELVAGISRGGGSTYYADSVKGRFTISRDNANKTVYLQKNSLKPEDTAVYYCAADDPLYSISTGDYWGQGTQVTVSL,low polyreactivity
15,QVQLVESGGGLVQAGGSLRLSCAASGSTLWVYAMGSYRQAPGKERELVAAITQSTGDTHYADSVKGRFTISRDNAKNTVYLQMNSLKPEDTAVYYCAADSYLSVYDPYGYWGQGTQVTVSS,low polyreactivity
16,QVQLVESGGGLVQAGGSLRLSCAASGSTLWYYAMGWYRQAPGKERELVADITSSGNTNYADSVKGRFTISRDNAKNTVYLQMNSLKPEDTAVYYCAADSANYQWYLSWQKDDYWGQGTQVTVSS,low polyreactivity
17,QVQLVESGGGLVQAGGSLRLSCAASGSTLYFNAMGWYRQAPGKERELVATITSGGSTYYADSVKGRFTISRDNAKNTVYFQMNSLKPEDTAVYYCNADFGSYATNGMTPLYDYWGQGTQVTVSS,high polyreactivity
18,QVQLVESGGGLVQAGGSLRLSCAASGSTLYKYAMGWYRQAPGKERELVATITRTDSTNYADSVKGRFTISRDNAKNTVYLQMNSLKPEDTAVYYCNRGFDWWYRYRHYDYWGQGTQVTVSS,low polyreactivity
19,QVQLVESGGGLVQAGGSLRLSCAASGSTLYPNAMGWYRQAPGKERELVAAIRRRGGSTYYADSVKGRFTISRDNAKNTVYLQMNSLKPEDTAVYYCAAYPYKQDPTLVHYDYWGQGTQVTVSS,low polyreactivity
20,QVQLVESGGGLVQAGGSLRLSCAASGSTLYPYDMGWYRQAPGKERELVAAIDSGGSTNYADSVKGRFTISRDNAKNTVYLQMNSLKPEDTAVYYCAADASGENDYWGQGTQVTVSS,low polyreactivity

# Reference: the nanobody polyreactivity screen of Harvey et al. (2022)
